Experimental data: the supplement of paper PMC10567573

B1: BRF1 (parent)
chain: FVESSGGGSSAVGQFVSLDGAGKT
B2: KLHL12 (parent)
chain: SMTTPRCYVGATVLRGRLYAIAGY

Variants of: B1
Experiment: protein stability index of a GFP-peptide fusion (GPS, HEK-293T) (PSI 1-6); higher = more stable
Conditions: c terminus: a fixed tail appended
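Also: lentivirally expressed fusions sorted by FACS into six bins by GFP to DsRed ratio, PSI derived from sequencing read proportions per bin multiplied by bin number.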

| Variant | protein stability index |
| --- | --- |
| G8S | 2.06 |
| G8A | 2.36 |
| G8P | 2.08 |
| G8M | 1.71 |
| G8T | 2.52 |
| G8K | 2.89 |
| G8Y | 2.46 |
| G8Q | 3.27 |
| G8I | 1.84 |
| G8N | 2.12 |
| G8V | 1.95 |
| G8D | 2.44 |
| G8E | 3.31 |
| G8R | 1.32 |
| G8H | 1.51 |
| G8F | 1.69 |
| G8L | 2.06 |
| G8C | 1.95 |
| S5Y | 1.53 |
| S5I | 2.24 |
| S5C | 2.03 |
| S5V | 1.75 |
| S5M | 1.75 |
| S5T | 2.62 |
| S5Q | 2.71 |

| Variant | protein stability index |
| --- | --- |
| S5G | 2.19 |
| S5F | 3 |
| S5A | 2.57 |
| S5H | 1.81 |
| S5D | 3.37 |
| S5R | 1.92 |
| S5P | 2.01 |
| S5K | 2.58 |
| S5E | 3.68 |
| S5N | 2.65 |
| S5L | 1.36 |
| E3V | 3.03 |
| E3W | 3.35 |
| E3N | 1.75 |
| E3S | 1.33 |
| E3D | 1.97 |
| E3Q | 1.78 |
| E3H | 2.01 |
| E3I | 2.62 |
| E3L | 1.17 |
| E3M | 2.71 |
| E3R | 3.14 |
| E3C | 1.88 |
| E3T | 1.43 |
| V16R | 2.35 |

| Variant | protein stability index |
| --- | --- |
| V16P | 2.66 |
| V16F | 2.01 |
| V16E | 3.51 |
| V16W | 4.22 |
| V16A | 2.65 |
| V16K | 2.16 |
| V16D | 2.96 |
| V16N | 2.63 |
| V16G | 2.4 |
| V16M | 2.96 |
| V16C | 3.51 |
| V16S | 2.83 |
| V16H | 2.6 |
| V16I | 2.18 |
| V16Q | 2.97 |
| V16L | 2.36 |
| V16Y | 1.75 |
| V16T | 2.38 |
| G7K | 2.09 |
| G7R | 1.38 |
| G7I | 1.81 |
| G7Q | 2.26 |
| G7S | 1.78 |
| G7P | 2.34 |
| G7H | 1.68 |

| Variant | protein stability index |
| --- | --- |
| G7W | 2.54 |
| G7N | 2.26 |
| G7T | 2.38 |
| G7M | 2.05 |
| G7C | 2.31 |
| G7F | 2.93 |
| G7L | 1.52 |
| G7E | 3.02 |
| G7D | 3.52 |
| G7A | 2.86 |
| G7V | 1.61 |
| A11V | 2.4 |
| A11G | 2.28 |
| A11I | 2.41 |
| A11N | 2 |
| A11K | 1.41 |
| A11T | 2.06 |
| A11C | 1.58 |
| A11H | 1.9 |
| A11D | 2.68 |
| A11R | 1.39 |
| A11Q | 2.61 |
| A11M | 1.63 |
| A11Y | 1.64 |
| A11S | 1.95 |

| Variant | protein stability index |
| --- | --- |
| A11E | 3.28 |
| A11P | 2.42 |
| A11F | 2.02 |
| A11L | 1.77 |
| S10T | 2.72 |
| S10R | 1.98 |
| S10Q | 2.53 |
| S10D | 2.75 |
| S10N | 2.31 |
| S10P | 2.57 |
| S10V | 1.96 |
| S10M | 1.46 |
| S10I | 1.37 |
| S10K | 1.42 |
| S10Y | 1.64 |
| S10C | 1.33 |
| S10G | 2.23 |
| S10H | 1.99 |
| S10L | 1.81 |
| S10E | 2.31 |
| S4H | 2.57 |
| S4T | 2.29 |
| S4D | 2.49 |
| S4M | 1.08 |
| S4Y | 1.3 |

| Variant | protein stability index |
| --- | --- |
| S4R | 2.42 |
| S4E | 3.28 |
| S4N | 2.62 |
| S4A | 1.97 |
| S4C | 3.2 |
| S4V | 2.54 |
| S4I | 1.86 |
| S4F | 2.01 |
| S4G | 2.81 |
| S4P | 2.67 |
| S4L | 1.51 |
| S4W | 2.63 |
| S4K | 2.63 |
| S4Q | 2.72 |
| Q14T | 1.86 |
| Q14S | 1.78 |
| Q14N | 1.9 |
| Q14R | 1.39 |
| Q14K | 1.72 |
| Q14C | 1.96 |
| Q14H | 1.68 |
| Q14D | 2.73 |
| Q14E | 2.89 |
| Q14P | 3.44 |
| Q14Y | 1.75 |

| Variant | protein stability index |
| --- | --- |
| Q14A | 1.73 |
| Q14M | 3.29 |
| Q14G | 2.06 |
| Q14I | 2.53 |
| Q14L | 1.04 |
| G13W | 1.49 |
| G13V | 2.25 |
| G13P | 2.18 |
| G13Q | 1.93 |
| G13R | 2.41 |
| G13K | 2.06 |
| G13E | 2.96 |
| G13F | 4.42 |
| G13H | 1.84 |
| G13I | 1.02 |
| G13L | 2.05 |
| G13N | 1.81 |
| G13S | 2.05 |
| G13M | 1.66 |
| G13D | 3.3 |
| G13C | 1.92 |
| G13T | 2.3 |
| F1A | 4.71 |
| F1V | 4.82 |
| F1Q | 5.13 |

| Variant | protein stability index |
| --- | --- |
| F1E | 5.04 |
| F1T | 5.09 |
| F1M | 4.99 |
| F1G | 5.26 |
| F1W | 3.88 |
| F1H | 4.71 |
| F1C | 4.65 |
| F1P | 5.24 |
| F1K | 4.59 |
| F1L | 4.89 |
| F1N | 5.17 |
| F1R | 5 |
| F1S | 5.15 |
| F1I | 4.34 |
| F1D | 5.32 |
| F1Y | 2.75 |
| S17H | 2.54 |
| S17P | 1.81 |
| S17A | 3.26 |
| S17D | 2.39 |
| S17C | 1.83 |
| S17M | 1.57 |
| S17N | 2.19 |
| S17K | 1.89 |
| S17G | 3.15 |

| Variant | protein stability index |
| --- | --- |
| S17L | 2.33 |
| S17F | 1.72 |
| S17R | 1.73 |
| S17Q | 2.81 |
| S17I | 1.23 |
| S17E | 2.53 |
| V2R | 4.44 |
| V2N | 4.94 |
| V2G | 4.36 |
| V2L | 4.72 |
| V2K | 4.25 |
| V2T | 4.76 |
| V2I | 3.22 |
| V2M | 4.49 |
| V2S | 4.35 |
| V2E | 5.33 |
| V2W | 4.01 |
| V2F | 4.2 |
| V2P | 4.97 |
| V2H | 3.87 |
| V2D | 5.17 |
| V2Y | 4.16 |
| V2Q | 4.12 |
| V2A | 3.78 |
| V2C | 3.96 |

| Variant | protein stability index |
| --- | --- |
| G6E | 2.94 |
| G6M | 1.76 |
| G6P | 2.23 |
| G6W | 2.5 |
| G6I | 1.49 |
| G6L | 1.97 |
| G6S | 2.7 |
| G6H | 1.74 |
| G6F | 1.45 |
| G6Q | 2.66 |
| G6D | 2.96 |
| G6R | 2.27 |
| G6N | 1.89 |
| G6Y | 2.45 |
| G6V | 2.18 |
| G6K | 2.3 |
| G6C | 1.97 |
| G6A | 2.37 |
| G6T | 2.53 |
| S9V | 2.58 |
| S9H | 2.17 |
| S9M | 1.99 |
| S9Y | 2.82 |
| S9E | 3.38 |
| S9P | 1.5 |

| Variant | protein stability index |
| --- | --- |
| S9F | 1.49 |
| S9I | 2.39 |
| S9Q | 2.22 |
| S9C | 2.22 |
| S9L | 1.77 |
| S9W | 2.93 |
| S9R | 1.68 |
| S9D | 3.03 |
| S9K | 1.72 |
| S9T | 2.29 |
| S9A | 2.2 |
| S9N | 2.38 |
| S9G | 2.36 |
| F15Y | 2.59 |
| F15T | 2.96 |
| F15H | 3.01 |
| F15P | 3.14 |
| F15I | 2.55 |
| F15G | 2.68 |
| F15V | 2.12 |
| F15K | 3.1 |
| F15S | 2.73 |
| F15Q | 2.56 |
| F15E | 3.35 |
| F15N | 2.83 |

| Variant | protein stability index |
| --- | --- |
| F15M | 2.22 |
| F15R | 2.69 |
| F15W | 2.06 |
| F15D | 4.4 |
| F15A | 2.31 |
| F15L | 2.27 |
| V12P | 1.86 |
| V12R | 2.51 |
| V12M | 2.52 |
| V12Y | 1.29 |
| V12T | 1.86 |
| V12W | 3.19 |
| V12H | 2.25 |
| V12S | 2.43 |
| V12C | 2.37 |
| V12D | 3.13 |
| V12N | 3.08 |
| V12L | 1.95 |
| V12A | 2.2 |
| V12E | 2.87 |
| V12G | 2.37 |
| V12I | 2.09 |
| V12K | 2.88 |
| V12F | 2.01 |

Variants of: B2
Experiment: as above
Conditions: c terminus: a fixed tail appended

| Variant | protein stability index |
| --- | --- |
| Y24M | 3.33 |
| Y24F | 3.7 |
| Y24K | 2.17 |
| L14H | 1.62 |
| P5M | 2.98 |
| R15W | 1.66 |
| R15H | 2.64 |
| L18N | 2 |
| L18D | 1.94 |
| L18P | 1.87 |
| L18V | 2.08 |
| A22G | 1.24 |
| Y8S | 2.77 |
| Y8I | 3.73 |
| S1C | 3.04 |
| S1Q | 1.39 |
| G10W | 1.11 |
| G10N | 1.95 |

| Variant | protein stability index |
| --- | --- |
| M2G | 2.78 |
| I21P | 2.29 |
| I21T | 1.37 |
| G23Q | 3.57 |
| G23A | 3.75 |
| R6S | 2.42 |
| R6L | 1.18 |
| R6A | 1.73 |
| T4D | 2.27 |
| A20E | 1.76 |
| Y19L | 2.15 |
| Y19F | 2.02 |
| C7A | 1.32 |
| V13T | 1.03 |
| T12A | 1.68 |
| T12D | 1.85 |
| R17Y | 2.26 |
